Where a chain is given by its changes, count along the chain named. Names may count otherwise.
B1: L76P9 E4: acrylodan-labeled mutant FABP probe: Y14L, M18Y, I23T, K27L, L30C, G31I, L72G, A73I, D74A, L78V, W82P, G91S, F93M, A104F, R106L, Y117L, Q115A (protein, UniProt P02693 2-132, looked up, variant Y14L M18Y I23T K27L L30C G31I L72G A73I D74A L78V W82P G91S F93M A104F R106L Y117L Q115A)
Fatty acid-binding protein, …: AFDGTWKVDRNENLEKFYEKMGTNVVLRKCIAHDNLKLTITQEGNKFTVKESSNFRNIDVVFELGVDFAYSGIAGTEVTGTPTMEGNKLVSKMKRVDNGKELIFVLEISGNELIATLTYEGVEAKRIFKKE
modifications: acrylodan label
notes: acrylodan-labeled mutant FABP probe: Y14L, M18Y, I23T, K27L, L30C, G31I, L72G, A73I, D74A, L78V, W82P, G91S, F93M, A104F, R106L, Y117L, Q115A
B2: L33P3 F9: acrylodan-labeled mutant FABP probe: M18L, I23L, G31N, L72W, A73T, D74A, R106A, Q115E, Y117V (protein, UniProt P02693 2-132, looked up, variant M18L I23L G31N L72W A73T D74A R106A Q115E Y117V)
Fatty acid-binding protein, …: AFDGTWKVDRNENYEKFLEKMGLNVVKRKLNAHDNLKLTITQEGNKFTVKESSNFRNIDVVFELGVDFAYSWTAGTELTGTWTMEGNKLVGKFKRVDNGKELIAVAEISGNELIETVTYEGVEAKRIFKKE
modifications: acrylodan label
notes: acrylodan-labeled mutant FABP probe: M18L, I23L, G31N, L72W, A73T, D74A, R106A, Q115E, Y117V
B3: L50BP9 D5: acrylodan-labeled mutant FABP probe: M18L, M21F, I23L, K27C, G31N, L72S, A73T, D74A, T76I, Y117N (protein, UniProt P02693 2-132, looked up, variant M18L M21F I23L K27C G31N L72S A73T D74A T76I Y117N)
Fatty acid-binding protein, …: B2 Fatty acid-binding protein, … with M21F, K27C, W72S, T76I, A106R, E115Q, V117N
modifications: acrylodan label
notes: acrylodan-labeled mutant FABP probe: M18L, M21F, I23L, K27C, G31N, L72S, A73T, D74A, T76I, Y117N
B4: L35P22E8: acrylodan-labeled mutant FABP probe: M18L, I23L, G31N, L36R, L38V, L72W, A73T, D74A, R106A, Q115E, Y117V (protein, UniProt P02693 2-132, looked up, variant M18L I23L G31N L36R L38V L72W A73T D74A R106A Q115E Y117V)
Fatty acid-binding protein, …: B2 Fatty acid-binding protein, … with L36R, L38V
modifications: acrylodan label
notes: acrylodan-labeled mutant FABP probe: M18L, I23L, G31N, L36R, L38V, L72W, A73T, D74A, R106A, Q115E, Y117V
B5: L50BP4 E2: acrylodan-labeled mutant FABP probe: M18L, M21F, I23F, K27C, G31N, L72T, A73T, D74A, T76F (protein, UniProt P02693 2-132, looked up, variant M18L M21F I23F K27C G31N L72T A73T D74A T76F)
Fatty acid-binding protein, …: B2 Fatty acid-binding protein, … with M21F, L23F, K27C, W72T, T76F, A106R, E115Q, V117Y
modifications: acrylodan label
notes: acrylodan-labeled mutant FABP probe: M18L, M21F, I23F, K27C, G31N, L72T, A73T, D74A, T76F
B6: L37P1 C3: acrylodan-labeled mutant FABP probe: Y14W, M18L, M21I, I23L, G31N, L38V, L72W, A73T, D74A, R106A, Q115E, Y117V (protein, UniProt P02693 2-132, looked up, variant Y14W M18L M21I I23L G31N L38V L72W A73T D74A R106A Q115E Y117V)
Fatty acid-binding protein, …: B2 Fatty acid-binding protein, … with Y14W, M21I, L38V
modifications: acrylodan label
notes: acrylodan-labeled mutant FABP probe: Y14W, M18L, M21I, I23L, G31N, L38V, L72W, A73T, D74A, R106A, Q115E, Y117V
B7: L128P18 A7: acrylodan-labeled mutant FABP probe: Y14W, M18L, M21I, I23L, K27C, G31G, L38V, S71M, L72W, A73T, D74P, A104I, R106A, Q115E, Y117V (protein, UniProt P02693 2-132, looked up, variant Y14W M18L M21I I23L K27C G31G L38V S71M L72W A73T D74P A104I R106A Q115E Y117V)
Fatty acid-binding protein, …: B2 Fatty acid-binding protein, … with Y14W, M21I, K27C, N31G, L38V, S71M, A74P, A104I
modifications: acrylodan label
notes: acrylodan-labeled mutant FABP probe: Y14W, M18L, M21I, I23L, K27C, G31G, L38V, S71M, L72W, A73T, D74P, A104I, R106A, Q115E, Y117V

Assay: Probe response profile / specificity for different FFAu at 1 nM
Assay type: binding
Conditions: FFAu giving the largest response to 1 nM of each FFAu; several listed in order of degree of specificity
Description: The abbreviations are: arachidonate (AA), docosahexaenoate (DHA), eicosapentaenoate (EPA), laurate (LAU), linoleate (LA), linolenate (LNA), myristate (MA), oleate (OA), palmitate (PA), palmitoleate (POA), stearate (SA), and vaccenate (VA).
Examples of probes used, generally in groups of 10 or more, to determine FFAu profiles in biological samples such as blood plasma or serum from animals and humans or media from microorganisms are shown in Table 2. In the sequences presented in Table 2 and the sequence listing, amino acids are numbered from the first residue of the mature protein. The initiator methionine residue of the wild-type protein is removed by aminopeptidase activity, leaving an alanine as residue 1. Thus, counting backwards and skipping 0, the initiator methionine is at residue position −1. Specificity indicates the FFAu that gives the largest response to 1 nM of each FFAu when one FFAu dominates the profile and more than one when there is a more even distribution of specificity. Where more than one is indicated they are listed in order of degree of specificity. The abbreviations are: arachidonate (AA), docosahexaenoate (DHA), eicosapentaenoate (EPA), laurate (LAU), linoleate (LA), linolenate (LNA), myristate (MA), oleate (OA), palmitate (PA), palmitoleate (POA), stearate (SA), and vacsinate (VA). The sequences indicate mutations relative to SEQ ID NO: 1. This sequence is a mutated rat intestinal fatty acid binding protein with a Glu 131 to Asp substitution and includes a COOH-terminal affininity tag comprising […], Gly 133 and 6 histidines.
The response profile is the fluorescence change as evaluated as (R−Ro)/Ro (ΔR/Ro) for each FFAu added as a complex of the FFA and albumin so that the FFAu concentration is clamped or buffered at 1 nM for every FFAu for which a calibration has been performed. The calculation is performed simply by rearranging equation 2 to solve for ΔR/Ro. […] However all the probes have different profiles and therefore complementary specificities for different FFAu. Abbreviations are as in Table 2.

Row | Molecule | Specificity
1 | B1 | OA/VA/SA/LA
2 | B2 | DHA/AA
3 | B3 | PA/POA/MA
4 | B4 | DHA/AA
5 | B5 | PA/MA
6 | B6 | AA/DHA/EPA
7 | B7 | DHA/AA
